In the supplement of paper PMC12042874 one finds amyloid nucleation score data, which are given here for 141 substances.

± gives the uncertainty stated by the source.

A short description of the data set: amyloid nucleation score (Sup35N fusion, yeast selection) (log enrichment); library NNK1; higher = more nucleation; inactive = no reads after selection. In outline:
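Sup35N fusions to peptides of 20 random codons were expressed in psi-negative yeast, induced 24 hours with 100 μM copper sulfate, and grown 7 days at 30°C on medium lacking adenine and uracil. Input and output plasmid inserts were sequenced by Illumina. The nucleation score is the DiMSum log enrichment of output over input reads, centred on the mode score of non-aggregating sequences. Sequences with under 100 input reads were excluded.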
For the substance LTSSCQSSLKRKWGNIWHIR, the amyloid nucleation score was -0.641 ± 1.1.

Consider CFRHR, for which the amyloid nucleation score came out at 0.428 ± 0.5.

With HSNMVNS, the amyloid nucleation score is -0.73 ± 0.33.

On to QGSPARMCVL, for which the amyloid nucleation score was determined as 0.629 ± 1.

Consider IEWVPTT, for which the amyloid nucleation score result was “inactive”.

Regarding ALRFFWDPFIDG, the amyloid nucleation score is 0.388 ± 0.81.

Substance VLARNRWRRKWRHTRGWVRG came in with an amyloid nucleation score of 0.157 ± 1.4.

The substance SLLLLMGALSHGMRLFKGSS showed an amyloid nucleation score of 0.268 ± 0.82.

The substance LNWSNKWSFTNMRRFCAMF gave an amyloid nucleation score of 0.01 ± 0.26.

Turning to HSSAEIMPGHISGTWGLCDK, the amyloid nucleation score was -0.62 ± 0.87.

In turn, YSSRIVRVSVRRVIHQSLRS returned an amyloid nucleation score of 1.41 ± 0.52.

For the substance GVKQEHVIPWQEVLGVITL, the amyloid nucleation score stood at 1.01 ± 0.84.

For the substance KENQSIRFWVD, the amyloid nucleation score entry was “inactive”.

With HAVSDFIPG, the amyloid nucleation score worked out at 0.69 ± 0.41.

YIASMVCDIRKPHPCLVYVL yielded an amyloid nucleation score of 0.149 ± 0.42.

For EKLSRAVYPRASIRVVCMLF, the amyloid nucleation score was -0.204 ± 0.34.

Take CFPFIFRIGFTNNGADSLVK: the amyloid nucleation score was -0.507 ± 0.63.

Turning to HWLGYVVLDLFDWPYCMIDL, the amyloid nucleation score was 1.38 ± 0.5.

Take VTYSYASGDGPDSLWCT: the amyloid nucleation score is -0.026 ± 0.84.

In the case of DLHWILNHTNGACFQWGQPA, the amyloid nucleation score entry is “inactive”.

For the substance CKHVETK, the amyloid nucleation score is -0.535 ± 1.4.

CGVLKTRIPLCFGVFEWNSL: the amyloid nucleation score amounted to 0.475 ± 0.72.

For the substance TNVKQQACRLRSS, the amyloid nucleation score was 4.83 ± 0.063.

With RHCLKVFSEDTYESVKVVLR, the amyloid nucleation score stood at 0.428 ± 0.75.

As to KMWIRCVIGVRMLYPFARCG, the amyloid nucleation score is -0.138 ± 0.49.

Take MALLRLDIITFRNESCSEPN: the amyloid nucleation score is -0.046 ± 0.26.

As to KADQCLSWDS, the amyloid nucleation score is -0.717 ± 0.97.

For WLPFLVFCRGESYYRLDRSS, the amyloid nucleation score was 2.42 ± 0.091.

FVPLTVN: the amyloid nucleation score is -0.068 ± 0.28.

For the substance SWDEAVSWHSRSVVSAGGVA, the amyloid nucleation score is -0.813 ± 1.3.

In the case of MGFDLSRRTCLYYLVTLSW, the amyloid nucleation score came out at 0.014 ± 1.1.

On to IRLRPERDLGVAWLCIGCKR, for which the amyloid nucleation score was -0.314 ± 1.2.

Regarding SPKSPPL, the amyloid nucleation score is -0.053 ± 0.62.

In the case of GVTHKDMSNDYFMGD, the amyloid nucleation score is -0.285 ± 0.47.

For the substance SALHVHRVKGSRREVSRDT, the amyloid nucleation score was -0.072 ± 0.31.

Consider SLFEFWSDNFNQEQ, for which the amyloid nucleation score came to 1.49 ± 0.76.

Substance RFLAWTSLPQGAAKVIMKC came in with an amyloid nucleation score of 0.126 ± 0.53.

As to SLSMLTARGLILNMCNGMRF, the amyloid nucleation score worked out at 1.52 ± 0.84.

In the case of RHSITLFLVTVETVRACVFK, the amyloid nucleation score was -0.714 ± 1.2.

Take TELGVSPIAKRRNSVLDHAL: the amyloid nucleation score was -0.449 ± 1.1.

Consider FQRGKLTASLSMVHSSRVCF, for which the amyloid nucleation score is -1.6 ± 2.4.

As to SCDFILLLAVT, the amyloid nucleation score turned out to be 0.352 ± 0.36.

Regarding SHVLCSDTNTI, the amyloid nucleation score entry was “inactive”.

Regarding NGTAVCLVRSLVYAHHGRQG, the amyloid nucleation score came to 0.481 ± 0.38.

With VVQFKMWACQTFFMDLRNTM, the amyloid nucleation score came to 1.56 ± 0.11.

Regarding CSCVCETEGRLSSSCYHHMP, the amyloid nucleation score was determined as 0.184 ± 0.38.

FLLREQQGLTEVMKEV: the amyloid nucleation score was 0.481 ± 0.52.

With WTAWADNSACSLCGQN, the amyloid nucleation score amounted to 0.859 ± 0.73.

CMLVYCEVASVGVSFKLWWR yielded an amyloid nucleation score of 1.73 ± 0.39.

In turn, RKWNS registered an amyloid nucleation score of 0.152 ± 0.72.

Substance HRMGPQVKHIHNIGESKQSE displayed an amyloid nucleation score of 0.822 ± 0.88.

Substance AMVGLMMELAHRKLNR returned an amyloid nucleation score of 0.523 ± 0.45.

As for LKLYLYTLECTFDELDYGD, the amyloid nucleation score turned out to be 0.161 ± 0.41.

KPERICLWLVVKRYSMVHLW came in with an amyloid nucleation score of 0.253 ± 0.51.

YYYGKVA registered an amyloid nucleation score of 0.227 ± 0.57.

As to WLLMSCTHCSCLKMRIHWKG, the amyloid nucleation score is -1.1 ± 2.4.

Take PPFDSDKA: the amyloid nucleation score came to 0.335 ± 0.77.

With TLRMGESCFKWWYQIFIQLF, the amyloid nucleation score is 0.275 ± 0.93.

With RYSYFSSASCLRYRAPKGRG, the amyloid nucleation score turned out to be 0.098 ± 0.32.

As to HNQDSCIFGQYSDNEVNASV, the amyloid nucleation score was -1.47 ± 1.6.

Turning to CSTALLDEKLLFHGTYIMRD, the amyloid nucleation score is 1.08 ± 0.57.

For WCCHAGAMFAMAKSL, the amyloid nucleation score turned out to be 0.468 ± 0.62.

The substance YTRVLILNENATAIIWSE registered an amyloid nucleation score of 1.87 ± 0.4.

Consider MWNGMAGMSQAGSCQRCS, for which the amyloid nucleation score was -0.287 ± 0.71.

For the substance RSFNYVLSTL, the amyloid nucleation score worked out at 0.45 ± 0.42.

For TTTCMRYGLIVC, the amyloid nucleation score turned out to be 1.7 ± 0.52.

With GNWASIWPLGFELLSYICQE, the amyloid nucleation score was -0.866 ± 0.49.

In the case of IVVSQPVFEGYIWLLNVAGG, the amyloid nucleation score was 4.42 ± 0.094.

With QGINLVY, the amyloid nucleation score was -0.342 ± 0.38.

In the case of GCTRNCSKCKGMHSQRHPYP, the amyloid nucleation score is -0.837 ± 2.4.

DFCVQNFMMLKFKLCYRRSL: the amyloid nucleation score was -0.134 ± 1.2.

As for LSLRCCGFYLIVFFVIKFVS, the amyloid nucleation score was -0.536 ± 0.29.

Consider EYNSFWTVVSMILTVKWLSG, for which the amyloid nucleation score came to 0.502 ± 0.24.

In the case of FTRQLWYMSICRYFQLPTFY, the amyloid nucleation score was 1.95 ± 0.56.

In the case of CMWPFTDYTIIKTSLYTWTN, the amyloid nucleation score was -1.09 ± 0.53.

Turning to MWSGLIDYMEYLLGWLCT, the amyloid nucleation score was 0.528 ± 1.2.

With SFFGFMVMTSRDDRFRLQ, the amyloid nucleation score was 3.04 ± 0.085.

In the case of WPRVGETSRVNLTTGIMS, the amyloid nucleation score was -0.297 ± 0.29.

For WNSLSWRVRMRGDNQYRRGR, the amyloid nucleation score was determined as 0.675 ± 1.

In turn, KILCWNIFLPYKGVRGRFGM yielded an amyloid nucleation score of 6.895 ± 0.053.

In the case of LRNDLVETSVLGA, the amyloid nucleation score was 1.47 ± 0.54.

On to HTCGIDGLNKRMT, for which the amyloid nucleation score was -0.791 ± 1.6.

Turning to AVCQRNLFGIVRICRSKTR, the amyloid nucleation score came out at 4.64 ± 0.055.

IHRLSARCRLNI gave an amyloid nucleation score of 0.657 ± 0.42.

Consider RDIRVHATDLNENNCVAHCR, for which the amyloid nucleation score is -0.356 ± 0.32.

Take MLYDFVDIRECNDILPARGG: the amyloid nucleation score stood at 0.043 ± 0.35.

For the substance LYNSGSTLI, the amyloid nucleation score came to 0.342 ± 0.61.

In turn, SVVTFT gave an amyloid nucleation score of 0.575 ± 0.49.

On to YIRIMLGMMPNLRERSRTRV, for which the amyloid nucleation score entry is “inactive”.

As for YMRSLFCISTQLSRAILVLP, the amyloid nucleation score was determined as 0.478 ± 1.

On to DKSFDFVLGSEACMVVEVGN, for which the amyloid nucleation score was -0.496 ± 0.61.

On to FRVWSAFPYVGKSSPFGHSS, for which the amyloid nucleation score is -0.89 ± 0.53.

Substance LNCCRMGGVLS had an amyloid nucleation score of 0.11 ± 0.42.

As to TVFFCNWVEPYDFNICR, the amyloid nucleation score turned out to be 6.763 ± 0.059.

INNTLNI gave an amyloid nucleation score of 0.793 ± 0.47.

The substance NDLAKHLGFTVTF registered an amyloid nucleation score of 0.011 ± 0.28.

Take RENYRAGTFVYGSPRLGPAW: the amyloid nucleation score was found to be 0.44 ± 0.88.

YYTYDGVGSLICTCRFTRVV: the amyloid nucleation score was -0.356 ± 0.49.

In turn, SLPFVTLLNAMCVCSGANCL showed an amyloid nucleation score of 8.449 ± 0.045.

Substance NISVVGSSING displayed an amyloid nucleation score of 0.713 ± 0.23.

CSQDYFIYYYPVLMLE: the amyloid nucleation score is -0.112 ± 0.46.

For the substance YKEFVLYILYRLGLMIRKA, the amyloid nucleation score result is “inactive”.

Regarding LLLGW, the amyloid nucleation score was -0.102 ± 0.32.

For the substance VTRYRTLTRHWWS, the amyloid nucleation score was found to be 0.277 ± 0.39.

As to IACFFQT, the amyloid nucleation score was found to be 1.66 ± 0.21.

As for CAVTDVRIIIHF, the amyloid nucleation score was determined as 2.15 ± 0.22.

The substance KGFFNAITGDKIPRPSRDRR returned an amyloid nucleation score of 0.174 ± 0.48.

As to YTVSNQLLSRLRGVQHNKLK, the amyloid nucleation score was -1.11 ± 0.92.

In the case of DFTCIRMNQSFVIRAFGALC, the amyloid nucleation score was 3.75 ± 0.16.

Substance TLSRFPLAALNLVRVR yielded an amyloid nucleation score of 0.3 ± 0.86.

In turn, CSAVS showed an amyloid nucleation score of 0.241 ± 0.39.

For SNSVRNRRIFKKSTVRH, the amyloid nucleation score is -0.055 ± 0.36.

GFYGRICL registered an amyloid nucleation score of 0.101 ± 0.46.

With RTDWYGEDWHYV, the amyloid nucleation score was -1.31 ± 1.4.

Regarding FFLMQYILYYKKQSDMFVSL, the amyloid nucleation score was -0.912 ± 1.7.

Substance YPNHGLLRQ gave an amyloid nucleation score of 0.166 ± 0.43.

Substance VFIVELNFMLRN showed an amyloid nucleation score of 4.69 ± 0.055.

With SKHRSIYFIPLSHVESVVVW, the amyloid nucleation score is -0.192 ± 1.1.

Substance KIRSPYNMMPMLTLGTSKGV showed an amyloid nucleation score of 0.845 ± 0.61.

Regarding WLLIRKGGVRFKIQYRHQHS, the amyloid nucleation score stood at 1.73 ± 0.37.

On to YGCSVYTVCMF, for which the amyloid nucleation score amounted to 8.243 ± 0.071.

On to IMLANVSLLVRNHGRY, for which the amyloid nucleation score is 3.02 ± 0.16.

In the case of LLIEWRLDSGWCTTGSENRD, the amyloid nucleation score is -0.347 ± 0.4.

In turn, VLSCLPHAINFFYPSRSK yielded an amyloid nucleation score of 1.05 ± 0.35.

In the case of VRLFMYMCIWMFMSDSSIWG, the amyloid nucleation score was -0.348 ± 0.64.

With MVKYYNTQHDGVSFIEIRLL, the amyloid nucleation score was determined as 0.527 ± 0.33.

With DPSSLNSGPCLHMAGGCGNQ, the amyloid nucleation score was -0.249 ± 1.7.

The substance IISPYHLLLIKYRSSCSLLH returned an amyloid nucleation score of 0.985 ± 0.33.

In the case of DWLFVGGGR, the amyloid nucleation score was found to be 0.131 ± 0.56.

Regarding TDGQWMSYSFSAFASYVVLG, the amyloid nucleation score is -0.179 ± 0.58.

On to AMLKDRNMLADYFHGVILGA, for which the amyloid nucleation score result is “inactive”.

With RYYLISEPILWIYGY, the amyloid nucleation score was -0.031 ± 0.33.

For DSLIDRSKVLKQTLYSTYWL, the amyloid nucleation score is -0.12 ± 0.48.

VTDEFCPVLSGG: the amyloid nucleation score was 0.317 ± 0.52.

In the case of RCGLAQSSVSSSVKGPRVTW, the amyloid nucleation score was -0.31 ± 0.6.

VSCANMNIDELTWHVDWWCL yielded an amyloid nucleation score of 7.597 ± 0.047.

IKGFALVWTPFGLAFFYRG showed an amyloid nucleation score of 0.113 ± 0.95.

In the case of FANLDSMNLIGKGFSMNYAL, the amyloid nucleation score was -0.614 ± 0.97.

With AYTLRYTFRYKYWLRYRLAG, the amyloid nucleation score is 0.861 ± 0.58.

For AVVLLLNRTD, the amyloid nucleation score is 0.282 ± 0.59.

With MVFSLSCFKSFTCYTYMCTA, the amyloid nucleation score was 7.15 ± 0.055.
